Measurements from patent US20070098718A1 (Novartis, published 2007).

B1: monoclonal antibody CHIR-12.12 (antibody, human IgG1, kappa, V domains shown)
VH: QVQLVESGGGVVQPGRSLRLSCAASGFTFSSYGMHWVRQAPGKGLEWVAVISYEESNRYHADSVKGRFTISRDNSKITLYLQMNSLRTEDTAVYYCARDGGIAAPGPDYWGQGTLVTVSS
VL: DIVMTQSPLSLTVTPGEPASISCRSSQSLLYSNGYNYLDWYLQKPGQSPQVLISLGSNRASGVPDRFSGSGSGTDFTLKISRVEAEDVGVYYCMQARQTPFTFGPGTKVDIRR
notes: Fully human IgG1 kappa anti-human CD40 mAb; also called antibody of hybridoma 153.8E2.D10.D6.12.12
B2: monoclonal antibody CHIR-5.9 (antibody, human IgG1, kappa, V domains shown)
VH: EVQLVQSGAEVKKPGESLKISCKGSGYSFTSYWIGWVRQMPGKGLEWMGIIYPGDSDTRYSPSFQGQVTISADKSISTAYLQWSSLKASDTAMYYCARGTAAGRDYYYYYGMDVWGQGTTVTVSS
VL: AIVMTQPPLSSPVTLGQPASISCRSSQSLVHSDGNTYLNWLQQRPGQPPRLLIYKFFRRLSGVPDRFSGSGAGTDFTLKISRVEAEDVGVYYCMQVTQFPHTFGQGTRLEIKR
notes: Fully human IgG1 kappa anti-human CD40 mAb; also called mAb CHIR-5.9; antibody of hybridoma 131.2F8.5.9

Target: T1, Recombinant soluble CD40-his (human, UniProt P25942 21-193, limits assumed)
T1 construct: not shown: his tag
Assay: binding affinity to human CD40 (Biacore per paragraph 64)

T1 sequence (P25942 21-193 limits assumed): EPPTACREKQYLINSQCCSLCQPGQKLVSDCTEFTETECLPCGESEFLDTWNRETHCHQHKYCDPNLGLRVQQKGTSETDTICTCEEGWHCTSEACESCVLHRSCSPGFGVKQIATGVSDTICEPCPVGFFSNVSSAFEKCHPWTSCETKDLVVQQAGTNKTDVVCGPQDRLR

| Binder | Kd |
| --- | --- |
| B1 | 0.5 nM |
| B2 | 12 nM |
